# Measurements reported in patent publication US20210388087A1 (Chugai, published 2021).
# T1: Human CD3eg linker (human)
# T1 construct: Single-chain construct; also called recombinant human CD3
# T1 chain: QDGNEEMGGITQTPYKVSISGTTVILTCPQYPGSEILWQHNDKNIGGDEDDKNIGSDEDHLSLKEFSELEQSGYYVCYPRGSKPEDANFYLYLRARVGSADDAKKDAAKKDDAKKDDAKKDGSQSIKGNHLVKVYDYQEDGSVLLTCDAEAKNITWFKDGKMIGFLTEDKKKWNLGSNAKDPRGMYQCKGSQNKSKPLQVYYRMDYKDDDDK
# Target: T1, Human CD3eg linker
# Assay: SPR; fold vs parent H183/L072
row,fold change of affinity [fold],Binder
1,0.4,"H183/L072 VL N53T (antibody, name in Kabat numbering, V domains shown) VH: QVQLVESGGGLVQPGRSLRLSCAASGFTFSNAWMHWVRQAPGKGLEWVAQIKDKGNAYAAYYAPSVKGRFTISRDDSKNSIYLQMNSLKTEDTAVYYCHYVHYASASTVLPAFGVDAWGQGTTVTVSS VL: DIVMTQSPLSLPVTPGEPASISCQASQELVHMNRNTYLHWYQQKPGQAPRLLIYKVSTRFPGVPDRFSGSGSGTDFTLKISRVEAEDVGVYYCAQGTSVPFTFGQGTKLEIK"
2,3.3,"H183/L072 VL P56N (antibody, name in Kabat numbering, V domains shown) VH: QVQLVESGGGLVQPGRSLRLSCAASGFTFSNAWMHWVRQAPGKGLEWVAQIKDKGNAYAAYYAPSVKGRFTISRDDSKNSIYLQMNSLKTEDTAVYYCHYVHYASASTVLPAFGVDAWGQGTTVTVSS VL: DIVMTQSPLSLPVTPGEPASISCQASQELVHMNRNTYLHWYQQKPGQAPRLLIYKVSNRFNGVPDRFSGSGSGTDFTLKISRVEAEDVGVYYCAQGTSVPFTFGQGTKLEIK"
3,3,"H183/L072 VL P56D (antibody, name in Kabat numbering, V domains shown) VH: QVQLVESGGGLVQPGRSLRLSCAASGFTFSNAWMHWVRQAPGKGLEWVAQIKDKGNAYAAYYAPSVKGRFTISRDDSKNSIYLQMNSLKTEDTAVYYCHYVHYASASTVLPAFGVDAWGQGTTVTVSS VL: DIVMTQSPLSLPVTPGEPASISCQASQELVHMNRNTYLHWYQQKPGQAPRLLIYKVSNRFDGVPDRFSGSGSGTDFTLKISRVEAEDVGVYYCAQGTSVPFTFGQGTKLEIK"
4,3.1,"H183/L072 VL P56I (antibody, name in Kabat numbering, V domains shown) VH: QVQLVESGGGLVQPGRSLRLSCAASGFTFSNAWMHWVRQAPGKGLEWVAQIKDKGNAYAAYYAPSVKGRFTISRDDSKNSIYLQMNSLKTEDTAVYYCHYVHYASASTVLPAFGVDAWGQGTTVTVSS VL: DIVMTQSPLSLPVTPGEPASISCQASQELVHMNRNTYLHWYQQKPGQAPRLLIYKVSNRFIGVPDRFSGSGSGTDFTLKISRVEAEDVGVYYCAQGTSVPFTFGQGTKLEIK"
5,0.7,"H183/L072 VL N53W (antibody, name in Kabat numbering, V domains shown) VH: QVQLVESGGGLVQPGRSLRLSCAASGFTFSNAWMHWVRQAPGKGLEWVAQIKDKGNAYAAYYAPSVKGRFTISRDDSKNSIYLQMNSLKTEDTAVYYCHYVHYASASTVLPAFGVDAWGQGTTVTVSS VL: DIVMTQSPLSLPVTPGEPASISCQASQELVHMNRNTYLHWYQQKPGQAPRLLIYKVSWRFPGVPDRFSGSGSGTDFTLKISRVEAEDVGVYYCAQGTSVPFTFGQGTKLEIK"
6,3.4,"H183/L072 VL P56V (antibody, name in Kabat numbering, V domains shown) VH: QVQLVESGGGLVQPGRSLRLSCAASGFTFSNAWMHWVRQAPGKGLEWVAQIKDKGNAYAAYYAPSVKGRFTISRDDSKNSIYLQMNSLKTEDTAVYYCHYVHYASASTVLPAFGVDAWGQGTTVTVSS VL: DIVMTQSPLSLPVTPGEPASISCQASQELVHMNRNTYLHWYQQKPGQAPRLLIYKVSNRFVGVPDRFSGSGSGTDFTLKISRVEAEDVGVYYCAQGTSVPFTFGQGTKLEIK"
7,5.5,"H183/L072 VL P56R (antibody, name in Kabat numbering, V domains shown) VH: QVQLVESGGGLVQPGRSLRLSCAASGFTFSNAWMHWVRQAPGKGLEWVAQIKDKGNAYAAYYAPSVKGRFTISRDDSKNSIYLQMNSLKTEDTAVYYCHYVHYASASTVLPAFGVDAWGQGTTVTVSS VL: DIVMTQSPLSLPVTPGEPASISCQASQELVHMNRNTYLHWYQQKPGQAPRLLIYKVSNRFRGVPDRFSGSGSGTDFTLKISRVEAEDVGVYYCAQGTSVPFTFGQGTKLEIK"
8,3.9,"H183/L072 VL P56M (antibody, name in Kabat numbering, V domains shown) VH: QVQLVESGGGLVQPGRSLRLSCAASGFTFSNAWMHWVRQAPGKGLEWVAQIKDKGNAYAAYYAPSVKGRFTISRDDSKNSIYLQMNSLKTEDTAVYYCHYVHYASASTVLPAFGVDAWGQGTTVTVSS VL: DIVMTQSPLSLPVTPGEPASISCQASQELVHMNRNTYLHWYQQKPGQAPRLLIYKVSNRFMGVPDRFSGSGSGTDFTLKISRVEAEDVGVYYCAQGTSVPFTFGQGTKLEIK"
9,3.7,"H183/L072 VL P56G (antibody, name in Kabat numbering, V domains shown) VH: QVQLVESGGGLVQPGRSLRLSCAASGFTFSNAWMHWVRQAPGKGLEWVAQIKDKGNAYAAYYAPSVKGRFTISRDDSKNSIYLQMNSLKTEDTAVYYCHYVHYASASTVLPAFGVDAWGQGTTVTVSS VL: DIVMTQSPLSLPVTPGEPASISCQASQELVHMNRNTYLHWYQQKPGQAPRLLIYKVSNRFGGVPDRFSGSGSGTDFTLKISRVEAEDVGVYYCAQGTSVPFTFGQGTKLEIK"
10,5.6,"H183/L072 VL P56K (antibody, name in Kabat numbering, V domains shown) VH: QVQLVESGGGLVQPGRSLRLSCAASGFTFSNAWMHWVRQAPGKGLEWVAQIKDKGNAYAAYYAPSVKGRFTISRDDSKNSIYLQMNSLKTEDTAVYYCHYVHYASASTVLPAFGVDAWGQGTTVTVSS VL: DIVMTQSPLSLPVTPGEPASISCQASQELVHMNRNTYLHWYQQKPGQAPRLLIYKVSNRFKGVPDRFSGSGSGTDFTLKISRVEAEDVGVYYCAQGTSVPFTFGQGTKLEIK"
11,0.3,"H183/L072 VL N53V (antibody, name in Kabat numbering, V domains shown) VH: QVQLVESGGGLVQPGRSLRLSCAASGFTFSNAWMHWVRQAPGKGLEWVAQIKDKGNAYAAYYAPSVKGRFTISRDDSKNSIYLQMNSLKTEDTAVYYCHYVHYASASTVLPAFGVDAWGQGTTVTVSS VL: DIVMTQSPLSLPVTPGEPASISCQASQELVHMNRNTYLHWYQQKPGQAPRLLIYKVSVRFPGVPDRFSGSGSGTDFTLKISRVEAEDVGVYYCAQGTSVPFTFGQGTKLEIK"
12,2.9,"H183/L072 VL P56H (antibody, name in Kabat numbering, V domains shown) VH: QVQLVESGGGLVQPGRSLRLSCAASGFTFSNAWMHWVRQAPGKGLEWVAQIKDKGNAYAAYYAPSVKGRFTISRDDSKNSIYLQMNSLKTEDTAVYYCHYVHYASASTVLPAFGVDAWGQGTTVTVSS VL: DIVMTQSPLSLPVTPGEPASISCQASQELVHMNRNTYLHWYQQKPGQAPRLLIYKVSNRFHGVPDRFSGSGSGTDFTLKISRVEAEDVGVYYCAQGTSVPFTFGQGTKLEIK"
13,4.1,"H183/L072 VL P56A (antibody, name in Kabat numbering, V domains shown) VH: QVQLVESGGGLVQPGRSLRLSCAASGFTFSNAWMHWVRQAPGKGLEWVAQIKDKGNAYAAYYAPSVKGRFTISRDDSKNSIYLQMNSLKTEDTAVYYCHYVHYASASTVLPAFGVDAWGQGTTVTVSS VL: DIVMTQSPLSLPVTPGEPASISCQASQELVHMNRNTYLHWYQQKPGQAPRLLIYKVSNRFAGVPDRFSGSGSGTDFTLKISRVEAEDVGVYYCAQGTSVPFTFGQGTKLEIK"
14,4.1,"H183/L072 VL P56S (antibody, name in Kabat numbering, V domains shown) VH: QVQLVESGGGLVQPGRSLRLSCAASGFTFSNAWMHWVRQAPGKGLEWVAQIKDKGNAYAAYYAPSVKGRFTISRDDSKNSIYLQMNSLKTEDTAVYYCHYVHYASASTVLPAFGVDAWGQGTTVTVSS VL: DIVMTQSPLSLPVTPGEPASISCQASQELVHMNRNTYLHWYQQKPGQAPRLLIYKVSNRFSGVPDRFSGSGSGTDFTLKISRVEAEDVGVYYCAQGTSVPFTFGQGTKLEIK"
15,3.3,"H183/L072 VL P56F (antibody, name in Kabat numbering, V domains shown) VH: QVQLVESGGGLVQPGRSLRLSCAASGFTFSNAWMHWVRQAPGKGLEWVAQIKDKGNAYAAYYAPSVKGRFTISRDDSKNSIYLQMNSLKTEDTAVYYCHYVHYASASTVLPAFGVDAWGQGTTVTVSS VL: DIVMTQSPLSLPVTPGEPASISCQASQELVHMNRNTYLHWYQQKPGQAPRLLIYKVSNRFFGVPDRFSGSGSGTDFTLKISRVEAEDVGVYYCAQGTSVPFTFGQGTKLEIK"
16,3.7,"H183/L072 VL P56Q (antibody, name in Kabat numbering, V domains shown) VH: QVQLVESGGGLVQPGRSLRLSCAASGFTFSNAWMHWVRQAPGKGLEWVAQIKDKGNAYAAYYAPSVKGRFTISRDDSKNSIYLQMNSLKTEDTAVYYCHYVHYASASTVLPAFGVDAWGQGTTVTVSS VL: DIVMTQSPLSLPVTPGEPASISCQASQELVHMNRNTYLHWYQQKPGQAPRLLIYKVSNRFQGVPDRFSGSGSGTDFTLKISRVEAEDVGVYYCAQGTSVPFTFGQGTKLEIK"
17,3.1,"H183/L072 VL P56L (antibody, name in Kabat numbering, V domains shown) VH: QVQLVESGGGLVQPGRSLRLSCAASGFTFSNAWMHWVRQAPGKGLEWVAQIKDKGNAYAAYYAPSVKGRFTISRDDSKNSIYLQMNSLKTEDTAVYYCHYVHYASASTVLPAFGVDAWGQGTTVTVSS VL: DIVMTQSPLSLPVTPGEPASISCQASQELVHMNRNTYLHWYQQKPGQAPRLLIYKVSNRFLGVPDRFSGSGSGTDFTLKISRVEAEDVGVYYCAQGTSVPFTFGQGTKLEIK"
18,3,"H183/L072 VL P56W (antibody, name in Kabat numbering, V domains shown) VH: QVQLVESGGGLVQPGRSLRLSCAASGFTFSNAWMHWVRQAPGKGLEWVAQIKDKGNAYAAYYAPSVKGRFTISRDDSKNSIYLQMNSLKTEDTAVYYCHYVHYASASTVLPAFGVDAWGQGTTVTVSS VL: DIVMTQSPLSLPVTPGEPASISCQASQELVHMNRNTYLHWYQQKPGQAPRLLIYKVSNRFWGVPDRFSGSGSGTDFTLKISRVEAEDVGVYYCAQGTSVPFTFGQGTKLEIK"
19,3.9,"H183/L072 VL P56T (antibody, name in Kabat numbering, V domains shown) VH: QVQLVESGGGLVQPGRSLRLSCAASGFTFSNAWMHWVRQAPGKGLEWVAQIKDKGNAYAAYYAPSVKGRFTISRDDSKNSIYLQMNSLKTEDTAVYYCHYVHYASASTVLPAFGVDAWGQGTTVTVSS VL: DIVMTQSPLSLPVTPGEPASISCQASQELVHMNRNTYLHWYQQKPGQAPRLLIYKVSNRFTGVPDRFSGSGSGTDFTLKISRVEAEDVGVYYCAQGTSVPFTFGQGTKLEIK"
20,3.4,"H183/L072 VL P56E (antibody, name in Kabat numbering, V domains shown) VH: QVQLVESGGGLVQPGRSLRLSCAASGFTFSNAWMHWVRQAPGKGLEWVAQIKDKGNAYAAYYAPSVKGRFTISRDDSKNSIYLQMNSLKTEDTAVYYCHYVHYASASTVLPAFGVDAWGQGTTVTVSS VL: DIVMTQSPLSLPVTPGEPASISCQASQELVHMNRNTYLHWYQQKPGQAPRLLIYKVSNRFEGVPDRFSGSGSGTDFTLKISRVEAEDVGVYYCAQGTSVPFTFGQGTKLEIK"
